± gives the uncertainty stated by the source.

B1: Tumor protein p73, residues 487 to 549; numbered along this chain, O15350 (parent)
chain: YHADPSLVSFLTGLGCPNCIEYFTSQGLQSIYHLQNLTIEDLGALKIPEQYRMTIWRGLQDLK

The variants in this series derive from B1. Briefly: abundance fitness (aPCA) (normalised: wild type 0, dead -1); higher = more abundant; growth selection in yeast, the domain comes from the species named. Conditions: Homo sapiens.
YHADPSLVSFLTGLGCPNCIEYFTSQGLQSIYHLQNLTIEDLGALKIPEQPRMTIWRGLQDLK: the abundance fitness is -0.049 ± 0.094.

Turning to YHADPSLVSFLTGLGCPNCIEYFTSQGLQSIYHLQNLTIEDLGALKIPEQRRMTIWRGLQDLK, the abundance fitness was -0.137 ± 0.04. Take YHADPSLVSFLTGLGCPNCIEYFTSQGLQSIYHLQNLTIEDLGALKIPEQNRMTIWRGLQDLK: the abundance fitness was -0.139 ± 0.11. On to YHADPSLVSFLTGLGCPNCIEYFTSQGLQSIYHLQNLTIEDLGALKIPEQLRMTIWRGLQDLK, for which the abundance fitness is -0.116 ± 0.058. In the case of YHADPSLVSFLTGLGCPNCIEYFTSQGLQSIYHLQNLTIEDLGALKIPEQHRMTIWRGLQDLK, the abundance fitness is -0.086 ± 0.097. For YHADPSLVSFLTGLGCPNCIEYFTSQGLQSIYHLQNLTIEDLGALKIPEQCRMTIWRGLQDLK, the abundance fitness was -0.083 ± 0.071.

Take YHADPSLVSFLTGLGCPNCIEYFTSQGLQSIYHLQNLTIEDLGALKIPEQDRMTIWRGLQDLK: the abundance fitness is -0.072 ± 0.18.

For the variant YHADPSLVSFLTGLGCPNCIEYFTSQGLQSIYHLQNLTIEDLGALKIPEQARMTIWRGLQDLK, the abundance fitness was -0.005 ± 0.076.

In the case of YHADPSLVSFLTGLGCPNCIEYFTSQGLQSIYHLQNLTIEDLGALKIPEQERMTIWRGLQDLK, the abundance fitness was -0.09 ± 0.049. Regarding YHADPSLVSFLTGLGCPNCIEYFTSQGLQSIYHLQNLTIEDLGALKIPEQYRRTIWRGLQDLK, the abundance fitness is 0.027 ± 0.028. Regarding YHADPSLVSFLTGLGCPNCIEYFTSQGLQSIYHLQNLTIEDLGALKIPEQYRTTIWRGLQDLK, the abundance fitness came out at 0.009 ± 0.043. For YHADPSLVSFLTGLGCPNCIEYFTSQGLQSIYHLQNLTIEDLGALKIPEQYRLTIWRGLQDLK, the abundance fitness was determined as 0.021 ± 0.032.

With YHADPSLVSFLTGLGCPNCIEYFTSQGLQSIYHLQNLTIEDLGALKIPEQYRNTIWRGLQDLK, the abundance fitness worked out at 0.01 ± 0.075. On to YHADPSLVSFLTGLGCPNCIEYFTSQGLQSIYHLQNLTIEDLGALKIPEQYRATIWRGLQDLK, for which the abundance fitness was -0.025 ± 0.023. In the case of YHADPSLVSFLTGLGCPNCIEYFTSQGLQSIYHLQNLTIEDLGALKIPEQYRVTIWRGLQDLK, the abundance fitness was -0.061 ± 0.021. YHADPSLVSFLTGLGCPNCIEYFTSQGLQSIYHLQNLTIEDLGALKIPEQYRDTIWRGLQDLK: the abundance fitness was found to be 0.019 ± 0.047. On to YHADPSLVSFLTGLGCPNCIEYFTSQGLQSIYHLQNLTIEDLGALKIPEQYRITIWRGLQDLK, for which the abundance fitness was -0.072 ± 0.1. For YHADPSLVSFLTGLGCPNCIEYFTSQGLQSIYHLQNLTIEDLGALKIPEQYRGTIWRGLQDLK, the abundance fitness was -0.025 ± 0.032. For the variant YHADPSLVSFLTGLGCPNCIEYFTSQGLQSIYHLQNLTIEDLGALKIPEQYRPTIWRGLQDLK, the abundance fitness was -0.051 ± 0.053.

With YHADPSLVSFLTGLGCPNCIEYFTSQGLQSIYHLQNLTIEDLGALKIPEQYRFTIWRGLQDLK, the abundance fitness was -0.123 ± 0.063. For YHADPSLVSFLTGLGCPNCIEYFTSQGLQSIYHLQNLTIEDLGALKIPEQYRHTIWRGLQDLK the value was 0.108 ± 0.075; for YHADPSLVSFLTGLGCPNCIEYFTSQGLQSIYHLQNLTIEDLGALKIPEQYRSTIWRGLQDLK, 0.008 ± 0.04. For YHADPSLVSFLTGLGCPNCIEYFTSQGLQSIYHLQNLTIEDLGALKIPEQYRWTIWRGLQDLK, the abundance fitness is -0.04 ± 0.042. Regarding YHADPSLVSFLTGLGCPNCIEYFTSQGLQSIYHLQNLTIEDLGALKIPEQYRKTIWRGLQDLK, the abundance fitness is -0.033 ± 0.078.

Regarding YHADPSLVSFLTGLGCPNCIEYFTSQGLQSIYHLQNLTIEDLGALKIPEQYRYTIWRGLQDLK, the abundance fitness is -0.302 ± 0.16. As for YHADPSLVSFLTGLGCPNCIEYFTSQGLQSIYHLQNLTIEDLGALKIPEQYRMSIWRGLQDLK, the abundance fitness is -0.042 ± 0.075. With YHADPSLVSFLTGLGCPNCIEYFTSQGLQSIYHLQNLTIEDLGALKIPEQYRMKIWRGLQDLK, the abundance fitness was 0.06 ± 0.047.

Regarding YHADPSLVSFLTGLGCPNCIEYFTSQGLQSIYHLQNLTIEDLGALKIPEQYRMDIWRGLQDLK, the abundance fitness is -0.01 ± 0.065. As for YHADPSLVSFLTGLGCPNCIEYFTSQGLQSIYHLQNLTIEDLGALKIPEQYRMHIWRGLQDLK, the abundance fitness was found to be 0.071 ± 0.087. As for YHADPSLVSFLTGLGCPNCIEYFTSQGLQSIYHLQNLTIEDLGALKIPEQYRMEIWRGLQDLK, the abundance fitness is -0.061 ± 0.07.

For the variant YHADPSLVSFLTGLGCPNCIEYFTSQGLQSIYHLQNLTIEDLGALKIPEQYRMAIWRGLQDLK, the abundance fitness is -0.034 ± 0.042. Take YHADPSLVSFLTGLGCPNCIEYFTSQGLQSIYHLQNLTIEDLGALKIPEQYRMWIWRGLQDLK: the abundance fitness is -0.142 ± 0.061. YHADPSLVSFLTGLGCPNCIEYFTSQGLQSIYHLQNLTIEDLGALKIPEQYRMVIWRGLQDLK: the abundance fitness was 0.088 ± 0.038. For YHADPSLVSFLTGLGCPNCIEYFTSQGLQSIYHLQNLTIEDLGALKIPEQYRMFIWRGLQDLK, the abundance fitness is -0.362 ± 0.14. Turning to YHADPSLVSFLTGLGCPNCIEYFTSQGLQSIYHLQNLTIEDLGALKIPEQYRMMIWRGLQDLK, the abundance fitness is -0.116 ± 0.058. As for YHADPSLVSFLTGLGCPNCIEYFTSQGLQSIYHLQNLTIEDLGALKIPEQYRMCIWRGLQDLK, the abundance fitness is -0.13 ± 0.1. The result for YHADPSLVSFLTGLGCPNCIEYFTSQGLQSIYHLQNLTIEDLGALKIPEQYRMYIWRGLQDLK reads -0.189 ± 0.069. For YHADPSLVSFLTGLGCPNCIEYFTSQGLQSIYHLQNLTIEDLGALKIPEQYRMLIWRGLQDLK the value was -0.01 ± 0.051. As for YHADPSLVSFLTGLGCPNCIEYFTSQGLQSIYHLQNLTIEDLGALKIPEQYRMQIWRGLQDLK, the abundance fitness was found to be 0.028 ± 0.068. Regarding YHADPSLVSFLTGLGCPNCIEYFTSQGLQSIYHLQNLTIEDLGALKIPEQYRMGIWRGLQDLK, the abundance fitness was -0.074 ± 0.038. As to YHADPSLVSFLTGLGCPNCIEYFTSQGLQSIYHLQNLTIEDLGALKIPEQYRMRIWRGLQDLK, the abundance fitness was found to be 0.02 ± 0.043. With YHADPSLVSFLTGLGCPNCIEYFTSQGLQSIYHLQNLTIEDLGALKIPEQYRMIIWRGLQDLK, the abundance fitness stood at 0.025 ± 0.062. As for YHADPSLVSFLTGLGCPNCIEYFTSQGLQSIYHLQNLTIEDLGALKIPYQYRMTIWRGLQDLK, the abundance fitness is -0.181 ± 0.38.

(Values after the Human Domainome abundance scans (Beltran et al. 2025).)
